Results as given in IntAct's records for PubMed 10837255.

B1: Spindle assembly checkpoint serine/threonine-protein kinase BUB1 (Saccharomyces cerevisiae), P41695 (parent)
chain: MNLDLGSTVRGYESDKDTFPQSKGVSSSQKEQHSQLNQTKIAYEQRLLNDLEDMDDPLDLFLDYMIWISTSYIEVDSESGQEVLRSTMERCLIYIQDMETYRNDPRFLKIWIWYINLFLSNNFHESENTFKYMFNKGIGTKLSLFYEEFSKLLENAQFFLEAKVLLELGAENNCRPYNRLLRSLSNYEDRLREMNIVENQNSVPDSRERLKGRLIYRTAPFFIRKFLTSSLMTDDKENRANLNSNVGVGKSAPNVYQDSIVVADFKSETERLNLNSSKQPSNQRLKNGNKKTSIYADQKQSNNPVYKLINTPGRKPERIVFNFNLIYPENDEEFNTEEILAMIKGLYKVQRRGKKHTEDYTSDKNRKKRKLDVLVERRQDLPSSQPPVVPKSTRIEVFKDDDNPSQSTHHKNTQVQVQTTTSILPLKPVVDGNLAHETPVKPSLTSNASRSPTVTAFSKDAINEVFSMFNQHYSTPGALLDGDDTTTSKFNVFENFTQEFTAKNIEDLTEVKDPKQETVSQQTTSTNETNDRYERLSNSSTRPEKADYMTPIKETTETDVVPIIQTPKEQIRTEDKKSGDNTETQTQLTSTTIQSSPFLTQPEPQAEKLLQTAEHSEKSKEHYPTIIPPFTKIKNQPPVIIENPLSNNLRAKFLSEISPPLFQYNTFYNYNQELKMSSLLKKIHRVSRNENKNPIVDFKKTGDLYCIRGELGEGGYATVYLAESSQGHLRALKVEKPASVWEYYIMSQVEFRLRKSTILKSIINASALHLFLDESYLVLNYASQGTVLDLINLQREKAIDGNGIMDEYLCMFITVELMKVLEKIHEVGIIHGDLKPDNCMIRLEKPGEPLGAHYMRNGEDGWENKGIYLIDFGRSFDMTLLPPGTKFKSNWKADQQDCWEMRAGKPWSYEADYYGLAGVIHSMLFGKFIETIQLQNGRCKLKNPFKRYWKKEIWGVIFDLLLNSGQASNQALPMTEKIVEIRNLIESHLEQHAENHLRNVILSIEEELSHFQYKGKPSRRF
partner: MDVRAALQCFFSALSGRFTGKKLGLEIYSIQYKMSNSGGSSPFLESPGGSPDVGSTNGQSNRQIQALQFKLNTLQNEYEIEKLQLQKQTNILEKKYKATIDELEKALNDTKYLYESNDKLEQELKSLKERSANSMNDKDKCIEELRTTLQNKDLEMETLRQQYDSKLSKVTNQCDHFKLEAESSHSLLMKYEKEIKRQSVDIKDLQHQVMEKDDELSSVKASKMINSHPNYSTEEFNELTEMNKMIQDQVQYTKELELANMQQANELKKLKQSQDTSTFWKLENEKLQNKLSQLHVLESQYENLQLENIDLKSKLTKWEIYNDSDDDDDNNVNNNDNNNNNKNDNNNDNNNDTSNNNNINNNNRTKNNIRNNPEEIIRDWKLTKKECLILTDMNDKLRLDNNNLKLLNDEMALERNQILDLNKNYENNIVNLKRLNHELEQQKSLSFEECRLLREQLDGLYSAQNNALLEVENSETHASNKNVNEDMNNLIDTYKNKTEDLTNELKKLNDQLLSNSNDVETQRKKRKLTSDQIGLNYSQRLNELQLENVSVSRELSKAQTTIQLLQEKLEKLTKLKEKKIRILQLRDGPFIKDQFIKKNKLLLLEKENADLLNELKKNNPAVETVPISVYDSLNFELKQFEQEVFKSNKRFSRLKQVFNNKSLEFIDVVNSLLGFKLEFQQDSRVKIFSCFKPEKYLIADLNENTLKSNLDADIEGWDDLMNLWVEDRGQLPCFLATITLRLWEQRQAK

Variants of: B1
Conditions: with mad1_yeast MAD1, P40957

| effect of a mutation on the interaction | Variant |
| --- | --- |
| decreasing interaction | K733R |
